# Results reported in patent publication US20200010554A1 (TUSK THERAPEUTICS, published 2020).
# T1: recombinant mouse CD25 (mouse, UniProt P01590 22-236, biotinylated in FIG. 1A (site not stated))
# T1 construct: also called biotinylated mouse CD25
# T1 sequence (looked up): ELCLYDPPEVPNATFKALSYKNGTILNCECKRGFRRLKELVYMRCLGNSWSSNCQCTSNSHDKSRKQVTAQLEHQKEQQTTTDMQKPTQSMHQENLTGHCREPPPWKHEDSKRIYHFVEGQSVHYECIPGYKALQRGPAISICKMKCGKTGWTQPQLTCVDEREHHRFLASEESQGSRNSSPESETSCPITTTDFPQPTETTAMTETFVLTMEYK
# T2: human CD25 expressed on cells (Karpas 299, SU-DHL-1, SR-786, in vitro differentiated Treg cells, PBMC) (human, UniProt P01589 22-272)
# T2 construct: also called CD25 expressing cells
# T2 sequence: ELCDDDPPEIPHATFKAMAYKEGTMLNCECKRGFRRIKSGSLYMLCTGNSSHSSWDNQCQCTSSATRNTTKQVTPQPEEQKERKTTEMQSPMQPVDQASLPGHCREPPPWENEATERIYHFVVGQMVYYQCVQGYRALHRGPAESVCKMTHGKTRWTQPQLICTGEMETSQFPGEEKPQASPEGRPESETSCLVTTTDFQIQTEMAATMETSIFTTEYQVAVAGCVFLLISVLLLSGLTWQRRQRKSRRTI
# T3: recombinant mouse CD25 his tagged (mouse, UniProt P01590 22-236, limits assumed)
# T3 construct: also called rmCD25 his tagged; mCD25; not shown: his tag
# T3 sequence (looked up): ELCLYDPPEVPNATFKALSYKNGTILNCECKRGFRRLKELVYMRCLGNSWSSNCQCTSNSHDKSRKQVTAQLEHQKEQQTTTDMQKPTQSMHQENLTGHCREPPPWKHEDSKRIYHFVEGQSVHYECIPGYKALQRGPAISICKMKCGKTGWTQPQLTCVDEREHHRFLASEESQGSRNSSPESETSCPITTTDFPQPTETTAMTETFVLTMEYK
# How the values were obtained:
# [1] = target: recombinant mouse IL-2 (mouse) (UniProt P04351); assay: cell-based or functional assay
# recombinant mouse CD25 [2] = target: T1, recombinant mouse CD25; assay: BLI tandem cross-blocking: biotinylated mouse CD25 on SA sensor, 100 nM mouse IL-2, then antibody at 150 s
# [3] = target: T2, human CD25 expressed on cells (Karpas …); assay: flow cytometry titration on Karpas 299 cells, AF647 secondary antibody
# Experimental: (§1) Binding to CD25 expressing Karpas 299 cells and in vitro differentiated Tregs was examined by staining test articles (anti-CD25 primary antibodies) with 30 mg/ml antibodies followed by semi-log dilution series (7-point) for 30 minutes on ice. […] All samples were stained in duplicates. Live cells were gated using FSC vs SSC parameters by flow cytometry during sample acquisition. Mean fluorescence intensity (MFI) of stained cells were plotted on an XY chart, graphing MFI against the log of the concentration, and the data fit to a non-linear regression curve from which the EC50 is calculated.
# [4] = target: T2, human CD25 expressed on cells (Karpas …); assay: as above; remark: listed apart in the source
# Experimental: as §1
# [5] = target: T2, human CD25 expressed on cells (Karpas …); assay: flow cytometry titration on Karpas 299 cells, AF647 secondary antibody [Figure 68 continued]
# Experimental: as §1
# [6] = target: T2, human CD25 expressed on cells (Karpas …); assay: as above; remark: listed apart in the source
# Experimental: as §1
# [7] = target: T2, human CD25 expressed on cells (Karpas …); assay: flow cytometry titration on Karpas 299 cells, AF647 secondary antibody; remark: listed apart in the source
# Experimental: as §1
# [8] = target: T2, human CD25 expressed on cells (Karpas …); assay: as above; remark: listed apart in the source
# Experimental: as §1
# [9] = target: T2, human CD25 expressed on cells (Karpas …); assay: flow cytometry titration on Karpas 299 cells, AF647 secondary antibody [Figure 68 continued]; remark: listed apart in the source
# Experimental: as §1
# [10] = target: T2, human CD25 expressed on cells (Karpas …); assay: as above; remark: listed apart in the source
# Experimental: as §1
# recombinant mouse CD25 [11] = target: T1, recombinant mouse CD25; assay: BLI Octet RED384, IgG on AHQ sensors, 100 nM antigen, 1:1 model
# Experimental: Briefly, ForteBio affinity measurements were performed by loading IgGs on-line onto AHQ sensors. Sensors were equilibrated off-line in assay buffer for 30 min and then monitored on-line for 60 seconds for baseline establishment. Sensors with loaded IgGs were exposed to 100 nM antigen for 3 minutes, and afterwards were transferred to assay buffer for 3 min for off-rate measurement. All kinetics were analyzed using the 1:1 binding model.
# [12] = target: T3, recombinant mouse CD25 his tagged; assay: SPR Biacore 2000, antibody captured by anti-mouse antibody on CM-5 chip, recombinant mouse CD25 his tagged as analyte, bivalent analyte model
# Experimental: Anti-mouse antibody was initially immobilised across all flow cells in a analysis buffer (pH 7.4, 10mM HEPES, 150 mM NaCl, 3 mM EDTA, 0.05% Tween 20) to an RU of between 16,000-18,000 over 10 minutes. […] Dissociation was performed in analysis buffer over 10 minutes. Regeneration steps between sample concentrations were performed in 10 mM Glycin pH1.7 for 10 minutes. A flow rate of 25 μl/min was maintained throughout the process. Kinetics data were fit using a global model bivalent analyte analysis software provided by Biacore with reference subtraction.
molecule,measurement,setting,value
"neutralizing anti-mouse IL-2 antibody, clone Jes6-1A12",frequency of CD4 T cells both proliferating and producing Granzyme B after anti-CD3/anti-CD28 stimulation,[1],< 1%
"recombinant mouse IL-2 (ligand, UniProt P04351 21-169, looked up) APTSSSTSSSTAEAQQQQQQQQQQQQHLEQLLMDLQELLSRMENYRNLKLPRMLTFKFYLPKQATELKDLQCLEDELGPLRHVLDLTQSKSFQLEDAENFISNIRVTVVKLKGSDNTFECQFDDESATVVDFLRRWIAFCQSIISTSPQ",binding result,recombinant mouse CD25 [2],binds
"Antibody 12 (antibody, V domains shown, also called Ab12) VH: QVQLQESGPGLVKPSETLSLTCTVSGFSLTSYGIQWIRQPPGKGLEWIGVIWAGGSTNYNSALMSRVTISKDNSKNQFSLKLSSVTAADTAVYYCARAYGYDGSWLAYWGQGTLVTVSS VL: DIQMTQSPSSLSASVGDRVTITCRASSSVSYMHWYQQKPGKAPKPLIFATSNLASGVPSRFSGSGSGTDYTLTISSLQPEDFATYYCQQWSSNPPTFGGGTKLEIK",EC50 (read off the curve),[3],~0.3 µg/mL
"Antibody 13 (antibody, V domains shown, also called Ab13) VH: QVQLQESGPGLVKPSETLSLTCTVSGFSLTSYGIQWIRQPPGKGLEWIGVIWAGGSTNYNSALMSRVTISKDNSKNQFSLKLSSVTAADTAVYYCARAYGYDGSWLAYWGQGTLVTVSS VL: QIQLTQSPSSLSASVGDRVTITCRASSSVSYMHWYQQKPGKSPKPLIFATSNLASGVPSRFSGSGSGTDYTLTISSLQPEDFATYYCQQWSSNPPTFGGGTKLEIK",EC50 (read off the curve),[4],~0.2 µg/mL
"Antibody 16 (antibody, V domains shown, also called Ab16) VH: QVQLQESGPGLVKPSETLSLTCTVSGFSLTSYGIQWVRQPPGKGLEWIGVIWAGGSTNYNSALMSRVTISKDNSKSQFSLKLSSVTAADTAVYYCARAYGYDGSWLAYWGQGTLVTVSS VL: DIQMTQSPSSLSASVGDRVTITCRASSSVSYMHWYQQKPGKAPKPLIFATSNLASGVPSRFSGSGSGTDYTLTISSLQPEDFATYYCQQWSSNPPTFGGGTKLEIK",EC50 (read off the curve),[5],~0.2 µg/mL
"Antibody 17 (antibody, V domains shown, also called Ab17) VH: QVQLQESGPGLVKPSETLSLTCTVSGFSLTSYGIQWVRQPPGKGLEWIGVIWAGGSTNYNSALMSRVTISKDNSKSQFSLKLSSVTAADTAVYYCARAYGYDGSWLAYWGQGTLVTVSS VL: QIQLTQSPSSLSASVGDRVTITCRASSSVSYMHWYQQKPGKSPKPLIFATSNLASGVPSRFSGSGSGTDYTLTISSLQPEDFATYYCQQWSSNPPTFGGGTKLEIK",EC50 (read off the curve),[6],~0.2 µg/mL
"Antibody 14 (antibody, V domains shown, also called AB14) VH: QVQLQESGPGLVKPSETLSLTCTVSGFSLTSYGIQWVRQPPGKGLEWIGVIWAGGSTNYNSALMSRVTISKDNSKSQFSLKLSSVTAADTAVYYCARAYGYDGSWLAYWGQGTLVTVSS VL: EIVLTQSPATLSLSPGERATLSCRASSSVSYMHWYQQKPGQAPRPLIFATSNLASGIPARFSGSGSGTDFTLTISSLEPEDFAVYYCQQWSSNPPTFGGGTKLEIK",EC50 (read off the curve),[7],~0.3 µg/mL
"Antibody 15 (antibody, V domains shown, also called Ab15) VH: QVQLQESGPGLVKPSETLSLTCTVSGFSLTSYGIQWVRQPPGKGLEWIGVIWAGGSTNYNSALMSRVTISKDNSKSQFSLKLSSVTAADTAVYYCARAYGYDGSWLAYWGQGTLVTVSS VL: QIVLTQSPATLSLSPGERATLSCRASSSVSYMHWYQQKPGQAPRPLIFATSNLASGIPARFSGSGSGTDYTLTISSLEPEDFAVYYCQQWSSNPPTFGGGTKLEIK",EC50 (read off the curve),[8],~0.3 µg/mL
"Antibody 18 (antibody, V domains shown, also called Ab18) VH: QVQLVESGGGVVQPGGSLRLSCAVSGFSLTSYGIQWVRQAPGKGLEWVSVIWAGGSTNYNSALMSRFTISKDNSKSTLYLQMNSLRAEDTAVYYCARAYGYDGSWLAYWGQGTLVTVSS VL: EIVLTQSPATLSLSPGERATLSCRASSSVSYMHWYQQKPGQAPRPLIFATSNLASGIPARFSGSGSGTDFTLTISSLEPEDFAVYYCQQWSSNPPTFGGGTKLEIK",EC50 (read off the curve),[9],~0.3 µg/mL
"Antibody 19 (antibody, V domains shown, also called Ab19; Antibodyl9) VH: QVQLVESGGGVVQPGGSLRLSCAVSGFSLTSYGIQWVRQAPGKGLEWVSVIWAGGSTNYNSALMSRFTISKDNSKSTLYLQMNSLRAEDTAVYYCARAYGYDGSWLAYWGQGTLVTVSS VL: QIVLTQSPATLSLSPGERATLSCRASSSVSYMHWYQQKPGQAPRPLIFATSNLASGIPARFSGSGSGTDYTLTISSLEPEDFAVYYCQQWSSNPPTFGGGTKLEIK",EC50 (read off the curve),[10],~0.3 µg/mL
"7D4(mIgG2a), recombinant anti-mouse CD25 antibody with mouse IgG2a and kappa constant regions (antibody, also called 7D4m2a; a7D4 mIgG2a) heavy: EVQLQQSGAALVKPGASVKMSCKASGYSFPDSWVTWVKQSHGKSLEWIGDIFPNSGATNFNEKFKGKATLTVDKSTSTAYMELSRLTSEDSAIYYCTRLDYGYWGQGVMVTVSSAKTTAPSVYPLAPVCGDTTGSSVTLGCLVKGYFPEPVTLTWNSGSLSSGVHTFPAVLQSDLYTLSSSVTVTSSTWPSQSITCNVAHPASSTKVDKKIEPRGPTIKPCPPCKCPAPNLLGGPSVFIFPPKIKDVLMISLSPIVTCVVVDVSEDDPDVQISWFVNNVEVHTAQTQTHREDYNSTLRVVSALPIQHQDWMSGKEFKCKVNNKDLPAPIERTISKPKGSVRAPQVYVLPPPEEEMTKKQVTLTCMVTDFMPEDIYVEWTNNGKTELNYKNTEPVLDSDGSYFMYSKLRVEKKNWVERNSYSCSVVHEGLHNHHTTKSFSRTPGK light: DVVLTQTPPTLSATIGQSVSISCRSSQSLLHSNGNTYLNWLLQRPGQPPQLLIYLASRLESGVPNRFSGSGSGTDFTLKISGVEAEDLGVYYCVQSSHFPNTFGVGTKLEIKRADAAPTVSIFPPSSEQLTSGGASVVCFLNNFYPKDINVKWKIDGSERQNGVLNSWTDQDSKDSTYSMSSTLTLTKDEYERHNSYTCEATHKTSTSPIVKSFNRNEC",Kd,recombinant mouse CD25 [11],~1 nM
same,Kd,[12],2.6 nM
"2E4, anti-mouse CD25 antibody from the 2E4 hybridoma (antibody, V domains shown, also called 2E4 (mlg1)) VH: EVQLVESGGGLVQPGRSLKLSCAASGFTFSDYGMAWVRQAPTKGLEWVASITNGGLNTYYRDSVKGRFTISRDNAKCTLYLQMDSLRSEDTATYYCATGGFSFWGQGTLVTVSS VL: DIVMTQSPTSMSISVGDRVTMNCKASQNVDSNVDWYQQKTGQSPKLLIYKASNRYTGVPDRFTGSGSGTDFTFTIRNMQAEDLAVYYCMQSNSYPLTFGSGTKLEIK",Kd,[12],114 nM
"7D4(mIgG1), recombinant anti-mouse CD25 antibody with murine IgG1 and kappa constant regions (antibody, also called a7D4(mIgG1); 7D4 (mlg1)) heavy: EVQLQQSGAALVKPGASVKMSCKASGYSFPDSWVTWVKQSHGKSLEWIGDIFPNSGATNFNEKFKGKATLTVDKSTSTAYMELSRLTSEDSAIYYCTRLDYGYWGQGVMVTVSSAKTTPPSVYPLAPGSAAQTNSMVTLGCLVKGYFPEPVTVTWNSGSLSSGVHTFPAVLQSDLYTLSSSVTVPSSTWPSQTVTCNVAHPASSTKVDKKIVPRDCGCKPCICTVPEVSSVFIFPPKPKDVLMISLTPKVTCVVVDISKDDPEVQFSWFVDDVEVHTAQTKPREEQINSTERSVSELPILHQDWLNGKEFKCRVNSAAFPAPIEKTISKTKGRPKAPQVYTIPPPKEQMAKDKVSLTCMITNEFPEDITVEWQWNGQPAENYKNTQPIMDTDGSYFVYSKLNVQKSNWEAGNTFTCSVLHEGLHNHHTEKSLSHSPGK light: DVVLTQTPPTLSATIGQSVSISCRSSQSLLHSNGNTYLNWLLQRPGQPPQLLIYLASRLESGVPNRFSGSGSGTDFTLKISGVEAEDLGVYYCVQSSHFPNTFGVGTKLEIKRADAAPTVSIFPPSSEQLTSGGASVVCFLNNFYPKDINVKWKIDGSERQNGVLNSWTDQDSKDSTYSMSSTLTLTKDEYERHNSYTCEATHKTSTSPIVKSFNRNEC",Kd,recombinant mouse CD25 [11],~1 nM
